Measurements reported in publication PMC6109231.

Biological target: heat shock protein 60 (HSP60) (human (endogenous in HEK293T)), P10809
Assay: negative-stain EM, single-particle analysis; SEC fraction 4 (1.5 to 2 MDa) of HEK293T lysate, Superdex 200 in PBS pH 7.2 at 4°C; 2% uranyl acetate; raw micrographs, reference-free 2D class averages, 3D classification (RELION) and ab initio reconstruction (cryoSPARC); proteins identified by mass spectrometry of the fraction
Settings: remark: other sources report otherwise

stoichiometry N: 7
B1: heat shock protein 60 (HSP60), P10809 27-573 (natural protein)
chain: AKDVKFGADARALMLQGVDLLADAVAVTMGPKGRTVIIEQSWGSPKVTKDGVTVAKSIDLKDKYKNIGAKLVQDVANNTNEEAGDGTTTATVLARSIAKEGFEKISKGANPVEIRRGVMLAVDAVIAELKKQSKPVTTPEEIAQVATISANGDKEIGNIISDAMKKVGRKGVITVKDGKTLNDELEIIEGMKFDRGYISPYFINTSKGQKCEFQDAYVLLSEKKISSIQSIVPALEIANAHRKPLVIIAEDVDGEALSTLVLNRLKVGLQVVAVKAPGFGDNRKNQLKDMAIATGGAVFGEEGLTLNLEDVQPHDLGKVGEVIVTKDDAMLLKGKGDKAQIEKRIQEIIEQLDVTTSEYEKEKLNERLAKLSDGVAVLKVGGTSDVEVNEKKDRVTDALNATRAAVEEGIVLGGGCALLRCIPALDSLTPANEDQKIGIEIIKRTLKIPAMTIAKNAGVEGSLIVEKIMQSSSEVGYDAMAGDFVNMVEKGIIDPTKVVRTALLDAAGVASLLTTAEVVVTEIPKEEKDPGMGAMGGMGGGMGGGMF
